Data set [1] has as its system human melanoma culture cell line SK-MEL-28. Briefly: In vitro cytotoxic activity (ADCC activity), 51Cr release. It counts as cell-based. Particulars: antibody 0.05 to 50 μg/ml, effector:target 50:1; FIG. 25. As for the experimental part:
(§1) Each of human melanoma culture cell lines, G-361 (ATCC CRL 1424) and SK-MEL-28 (ATCC HTB72), was cultured in RPMI1640-FBS(10) medium and adjusted to 1×10^6 cells, and the cells were isotope-labeled by adding 1.85 MBq equivalent of a radioactive substance Na2^51CrO4 and carrying out the reaction at 37° C. for 1 hour. After the reaction, the cells were washed three times by their suspension in RPMI1640-FBS(10) medium and centrifugation, re-suspended in the medium and then incubated in ice at 4° C. for 30 minutes to thereby spontaneously release the radioactive substance. After centrifugation, the cells were adjusted to 2×10^5 cells/ml by adding 5 ml of RPMI1640-FBS(10) medium and used as the target cell suspension.
(§2) Healthy human vein blood (50 ml) was collected, and 0.5 ml of heparin sodium (manufactured by Takeda Pharmaceutical) was gently added thereto. The resulting mixture was centrifuged (1,500 to 1,800×g for 30 minutes) using Polymorphprep (manufactured by Nycomed Pharma AS) in accordance with the manufacturers instructions to separate a mononuclear cell layer. […]
(§3) Into each well of a 96 well U bottom plate (manufactured by Falcon), 50 μl of the target cell suspension prepared in “a.” was dispensed (1×10^4 cells/well). […] After the reaction, the plate was centrifuged and the amount of ^51Cr in the supernatant was measured by a γ-counter. The amount of the spontaneously dissociated ^51Cr was calculated by carrying out the same procedure using the medium alone instead of the effector cell suspension and antibody solution and measuring the amount of ^51Cr in the supernatant. The amount of the total dissociated ^51Cr was calculated by carrying out the same procedure by adding the medium alone instead of the antibody solution, and 5 N sodium hydroxide instead of the effector cell suspension, and measuring the amount of ^51Cr in the supernatant. The ADCC activity was calculated by the following equation.

Data set [2] deals with human melanoma culture cell line G-361. The description is as above. It counts as cell-based. Particulars: FIG. 25. As for the experimental part: as §1, §2, §3
For data set [3] the following is noted: human serum as complement source; cited from earlier work.
Data set [4] deals with human melanoma culture cell line SK-MEL-28. The data set is described as follows: In vitro cytotoxic activity (CDC activity), 51Cr release. The note with it: antibody 0.05 to 50 μg/ml, human complement; FIG. 24. It counts as cell-based. As for the experimental part:
(§4) Each of human melanoma culture cell lines, G-361 (ATCC CRL 1424) and SK-MEL-28 (ATCC HTB72), was cultured in RPMI1640-FBS(10) medium and adjusted to 5×10^6 cells, and the cells were isotope-labeled by adding 3.7 MBq equivalent of a radioactive substance Na2^51CrO4 and carrying out the reaction at 37° C. for 1 hour. After the reaction, the cells were washed three times by their suspension in RPMI1640-FBS(10) medium and centrifugation, re-suspended in the medium and then incubated in ice at 4° C. for 30 minutes to thereby spontaneously release the radioactive substance. […]
(§5) To each well of a 96 well U bottom plate (manufactured by Falcon), 50 μl of the target cell suspension prepared in “a.” was added (5×10^4 cells/well), and then the anti-GD3 chimeric antibody KM871 or the anti-GD3 CDR-grafted antibody, KM8869, KM8870 or KM8871, was added to give a final concentration of 0.05 to 50 μg/ml and allowed to react at room temperature for 30 minutes. […] After centrifugation, the amount of ^51Cr released in the supernatant was measured by a γ-counter. The amount of the spontaneously dissociated ^51Cr was calculated by carrying out the same procedure using the medium alone instead of the antibody solution and complement solution and measuring the amount of ^51Cr in the supernatant. […] The CDC activity was calculated by the following equation.

Data set [5] deals with human melanoma culture cell line G-361. The data set is described as above. The note with it: antibody 0.05 to 50 μg/ml, human complement; FIG. 24. It counts as cell-based. As for the experimental part: as §4, §5
A further data set relates to B16-F10 cell. Briefly: Fluorescent antibody technique (flow cytometer), parent cell line. It counts as binding, mouse. Particulars: antibody 5 μg/ml; FIG. 3. As for the experimental part:
Each of 1×10^6 cells of the GD3 synthase gene transfectants B16-8-3 and B16-29-10 obtained in b. of the item (2) of Example 1 and the parent cell line B16-F10 cell were suspended in PBS, put into a microtube (manufactured by Treff) and centrifuged (2,000 rpm for 2 minutes) for washing the cells, 50 μl of the anti-GD3 human chimeric antibody KM871 (a solution prepared by adjusting to 5 μg/ml with 1% BSA-PBS, negative control was 1% BSA-PBS alone) was added thereto, followed by stirring, and the reaction was carried out at 4° C. for 1 hour. After the reaction and subsequent washing with PBS by centrifugation three times, 100 μl of biotin-labeled goat anti-human IgG (H+L) solution (manufactured by VECTOR, used by diluting 400 folds with 1% BSA-PBS) was added thereto, followed by stirring, and the reaction was carried out at 4° C. for 1 hour. After washing with PBS by centrifugation three times, 100 μl of a streptoavidin-labeled Cy5 pigment solution (Streptoavidin-RED670 manufactured by GIBCO, used by diluting 100 folds with 1% BSA-PBS) was added thereto, followed by stirring, and the reaction was carried out at 4° C. for 30 minutes. After the reaction and subsequent washing with PBS by centrifugation three times, the cells were again suspended in PBS to carry out the analysis using a flow cytometer EPICS Elite (manufactured by COULTER).

B1: KM871: anti-GD3 human chimeric antibody; VH SEQ ID NO:49, VL SEQ ID NO:50, human IgG1 and κ C regions (antibody, listed as Mus musculus, V domains shown)
VH: EVTLVESGGDFVKPGGSLKVSCAASGFAFSHYAMSWVRQTPAKRLEWVAYISSGGSGTYYSDSVKGRFTISRDNAKNTLYLQMRSLRSEDSAMYFCTRVKLGTYYFDSWGQGTTLTVSS
VL: DIQMTQTASSLPASLGDRVTISCSASQDISNYLNWYQQKPDGTVKLLIFYSSNLHSGVPSRFSGGGSGTDYSLTISNLEPEDIATYFCHQYSKLPWTFGGGTKLEIKR
modifications: human IgG1 and kappa constant regions
Turning to B1, the ADCC activity entry in data set [1] is given as “strong ADCC activity”; in data set [2] (antibody 0.05 to 50 μg/ml, effector:target 50:1) it was “strong ADCC activity”. The “difference in ADCC cytotoxic activity among KM871, KM8869, KM8870 and KM8871” value in data set [2] (G-361 and SK-MEL-28) was “difference in the cytotoxic activity was not found”. The “CDC activity in comparison with the original mouse-derived antibody” value in data set [3] is on record as “increased”. Further, the CDC activity entry in data set [4] is listed as “show the CDC activity”; in data set [5], “remarkably strong cytotoxic activity”. Also, the reactivity with cells entry in the data set on B16-F10 cell is given as “did not show reactivity”.

Values taken from patent US20080166345A1, “MEDICAMENTS COMPRISING GENE RECOMBINANT ANTIBODY AGAINST GANGLIOSIDE GD3” (KYOWA HAKKO KOGYO CO., LTD., priority 2001, published 2008).
